From the supplement of paper PMC11865577

Legend:
Test in all cases: pull-down binding Z-score (relative to library population); higher = stronger binding
Settings in all cases: RNA library: Library-2
[1] = tested on: TO-N3-2 (biotin conjugate)
Method in brief: (§1)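 An RNA library (1 μg) carrying a Cy5 or Cy3 end label was heat-folded in phosphate/NaCl/KCl buffer, then incubated for 60 min at 25 °C with streptavidin beads loaded with 100 pmol of biotin-conjugated small molecule. The beads were washed three times, and bound RNA was released in hot SDS and hybridised to a DNA barcode microarray for 20 h at 55.5 °C. Each binding score was derived by subtracting the signal from beads without compound, averaging the barcoded replicate probes after removing the highest and lowest, and expressing the result as a Z-score relative to the library mean and standard deviation.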

TO-N3 (biotin conjugate) = tested on: TO-N3 (biotin conjugate)
Method in brief: as §1

[2] = tested on: TO-3-N3-2 (biotin conjugate)
Method in brief: as §1

[3] = tested on: TO-3-N3 (biotin conjugate)
Method in brief: as §1

Row | Sequence | pull-down binding Z-score [1] | pull-down binding Z-score (TO-N3 (biotin conjugate)) | pull-down binding Z-score [2] | pull-down binding Z-score [3]
1 | GACAGCAGAUAUAGUUGUC | -0.0659 | 0.331 | 0.368 | 0.607
2 | GACAGUGGUUGCCUACGGGUACGCUGCUUGUC | 0.01 | 0.666 | -0.021 | 0.731
3 | GACAUCACUUUCUUAAAGAAAGAUGCUCCAUAUAUAGUGGGUGAUGUU [DMSMaPseq_invitro_SARS-CoV-2_Multi_15_ComplexLevel_1] | -0.466 | -0.173 | -0.0858 | -0.0756
4 | GACAUGUUCCUCGGAACUUGUC | -0.965 | -1.35 | -0.631 | -0.926
5 | GACAUUUUAUCUUACUAAUGAUGUUUCUUUUUUAGCACAUAUUCAGUGGAUGGUUAUGUU [DMSMaPseq_invitro_SARS-CoV-2_Motif_175] | 0.0287 | 0.455 | 0.317 | 0.0838
6 | GACCAGAAAUCAGCCCGAAUGGUU [IAV_invivo_PB1_2_Motif_17+IAV_invivo_PB1_2_Motif_17] | -0.162 | -0.464 | -0.175 | -0.477
7 | GACCCUAAGACUAAAAAUGUUACAAAAGAAAAUGACUCUAAAGAGGGUUUUUUCACUUACAUUUGUGGGUU | -0.519 | -0.227 | 0.101 | -0.131
8 | GACCCUGUGGGUU [SHAPE_invitro_SARS-CoV-2_Motif_242] | -0.805 | 0.574 | -0.329 | 0.817
9 | GACGACUACUAGCGUGCCUUUGUAAGCACAAGCUGAUGAGUACGAACUUAUGUACUCAUUCGUU [SHAPE_invivo_SARS-CoV-2_Multi_65_ComplexLevel_1] | 0.764 | 0.417 | 0.0759 | 0.114
10 | GACUACUAGCGUGCCUUUGUAAGCACAAGCUGAUGAGUACGAACUUAUGUACUCAUUCGUUUCGGAAGAGACAGGUACGUUAAUAGUU [SHAPE_invitro_SARS-CoV-2_Multi_71_ComplexLevel_1] | 0.672 | 0.649 | 0.392 | 0.389
11 | GACUCAUUCAAGGAGGAGUU [SHAPE_invivo_SARS-CoV-2_Motif_469] | -0.297 | 0.111 | -0.149 | 0.25
12 | GACUCUGAGCCAGUGCUCAAAGGAGUC | -0.0814 | -0.677 | -0.434 | -0.523
13 | GACUUAUGAAAACUAUAGGUC | -0.341 | -0.299 | 0.00298 | -0.388
14 | GACUUCAGUAACUCAGGUUCUGAUGUU | -0.704 | -0.829 | -0.426 | -0.751
15 | GACUUGCUUUAGCACUCAAUUUGCUUUUGCUUGUC | -1.08 | -0.0156 | -0.00573 | 0.241
16 | GAGACAUUUAAACUGUCUU | -1.06 | -0.91 | -0.286 | -0.469
17 | GAGACGGUCGGGUCCAGAUAUUCGUAUCUGUCGAGUAGAGUGUGGGCUCC [Broccoli] | 1.99 | 1.12 | 0.495 | 0.184

Row | Sequence | pull-down binding Z-score [1] | pull-down binding Z-score (TO-N3 (biotin conjugate)) | pull-down binding Z-score [2] | pull-down binding Z-score [3]
18 | GAGAGUGUUCAGACAUUCUU [SHAPE_invivo_SARS-CoV-2_Motif_44] | -0.51 | 0.718 | -0.0995 | 0.913
19 | GAGCUGCCCUGUCGGUGAAGCUC [IAV_invivo_NA_6_Motif_6+IAV_invivo_NA_6_Motif_6] | 0.384 | 0.217 | -0.0787 | 0.171
20 | GAGGCACUUAAAAUGACCAUGGCCUC [IAV_invivo_NS1_NEP_8_Motif_6+IAV_invivo_NS1_NEP_8_Motif_6] | -0.305 | 0.233 | 0.446 | 0.555
21 | GAGGCUAUGUACACACCGCAUACAGUCUUACAGGCUGUUGGGGCUUGUGUUCUUUGCAAUUC [SHAPE_invitro_SARS-CoV-2_Motif_296] | 0.485 | 0.112 | -0.158 | -0.256
22 | GAGGGGUGUAUACUGCUGCCGUGAACAUGAGCAUGAAAUUGCUUGGUACACGGAACGUUCUGAAAAGAGCUAUGAAUUGCAGACACCUUUU | 0.475 | -0.034 | -0.11 | -0.406
23 | GAGGUAAGUACGAUACUUACCUG [U1snRNP5ss-7] | -0.876 | -1.17 | -0.544 | -0.856
24 | GAGGUAAGUAUGAUACUUACCUG [U1snRNP5ss-8] | -1.02 | -0.957 | -0.377 | -0.664
25 | GAGGUGAGCAGGAUACUUACCUG [U1snRNP5ss-16] | 0.602 | 0.0508 | -0.182 | -0.342
26 | GAGGUGAUGCAGAUACUUACCUG [U1snRNP5ss-20] | 0.343 | 0.68 | 0.169 | 0.762
27 | GAGUAUUAGGUUUGAAAACCCUUGCUACUC [SHAPE_invivo_SARS-CoV-2_Motif_136] | -0.731 | -0.966 | -0.359 | -0.732
28 | GAGUCCUCAUCGGAGGACUU [IAV_invivo_NS1_NEP_8_Motif_11+IAV_invivo_NS1_NEP_8_Motif_11] | -1.36 | -0.729 | -0.368 | -0.347
29 | GAGUGCUAUCUAACCUUAACUUGCCUGGUUGUGAUGGUGGCAGUUUGUAUGUAAAUAAACAUGCAUUCCACACACCAGCUUUUGAUAAAAGUGCUU [DMSMaPseq_invitro_SARS-CoV-2_Motif_343] | -0.238 | -0.637 | -0.487 | -0.749
30 | GAGUUACACAGAAUGUUCUCUAUGAGAACCAAAAAUUGAUUGCCAACCAAUUUAAUAGUGCUAUUGGCAAAAUUCAAGACUC | -0.226 | -0.581 | 0.305 | -0.57
31 | GAGUUUUUAGUGCAGUUGGUAACAUCUGUUACACACCAUCAAAACUU | 0.396 | 0.0323 | -0.12 | -0.305
32 | GAUAACAACUUC [SHAPE_invitro_SARS-CoV-2_Motif_16] | -0.77 | 0.252 | 0.0515 | 0.519
33 | GAUCAGUUUCACCUAAACUGUUC | -1.08 | -1.46 | -0.626 | -1.06
